The target of this assay is T1, CD3 epsilon homodimer protein (UniProt P07766 23-126).
T1 construct: Construct of the homodimer protein is not described; also called CD3 (CD3 epsilon)
In words: SPR (Biacore T200), CD3 epsilon homodimer on CM4 chip, one-arm antibody as analyte; ratio to unaltered CE115HA000.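 Also: surface plasmon resonance run at 25 °C with HBS-EP+ as running buffer, CD3 epsilon homodimer attached by amine coupling, antibody passed over as analyte.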

T1 sequence (P07766 23-126): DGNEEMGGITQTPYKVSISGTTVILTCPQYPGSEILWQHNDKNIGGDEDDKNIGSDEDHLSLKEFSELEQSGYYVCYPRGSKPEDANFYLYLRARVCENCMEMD

B1: CE115HA000 N76S one-arm antibody (antibody, human IgG1, kappa, L234A L235A, N297A, name in Kabat numbering)
heavy: QVQLVESGGGVVQPGRSLRLSCAASGFTFSNAWMHWVRQAPGKGLEWVAQIKAKSNNYATYYAESVKGRFTISRDDSKSSLYLQMNSLKTEDTAVYYCRYVHYGAYYGVDAWGQGTTVTVSSASTKGPSVFPLAPSSKSTSGGTAALGCLVKDYFPEPVTVSWNSGALTSGVHTFPAVLQSSGLYSLSSVVTVPSSSLGTQTYICNVNHKPSNTKVDKKVEPKSCDKTHTCPPCPAPEAAGGPSVFLFPPKPKDTLMISRTPEVTCVVVDVSHEDPEVKFNWYVDGVEVHNAKTKPREEQYASTYRVVSVLTVLHQDWLNGKEYKCKVSNKALPAPIEKTISKAKGQPREPQVYTLPPSRCELTKNQVSLSCAVKGFYPSDIAVEWESNGQPENNYKTTPPVLDSDGSFFLVSKLTVDKSRWQQGNVFSCSVMHEALHNHYTQKSLSLSPDYKDDDDK
chain: EPKSSDKTHTCPPCPAPELLGGPSVFLFPPKPKDTLMISRTPEVTCVVVDVSHEDPEVKFNWYVDGVEVHNAKTKPREEQYNSTYRVVSVLTVLHQDWLNGKEYKCKVSNKALPAPIEKTISKAKGQPREPQVCTLPPSRDELTKNQVSLWCLVKGFYPSDIAVEWESNGQPENNYKTTPPVLDSDGSFFLYSKLTVDKSRWQQGNVFSCSVMHEALHNRYTQKSLSLSP
light: DIVMTQSPLSLPVTPGEPASISCRSSQSLVHSNRNTYLHWYQQKPGQAPRLLIYKVSNRFSGVPDRFSGSGSGTDFTLKISRVEAEDVGVYYCGQGTQVPYTFGQGTKLEIKRTVAAPSVFIFPPSDEQLKSGTASVVCLLNNFYPREAKVQWKVDNALQSGNSQESVTEQDSKDSTYSLSSTLTLSKADYEKHKVYACEVTHQGLSSPVTKSFNRGEC
notes: one-arm antibody
Consider B1, for which the “KD ratio (KD value of CE115HA000/KD value of the altered form)” value (shortened to “KD ratio”) stood at 0.84.

B2: CE115HA000 N82aD one-arm antibody (antibody, human IgG1, kappa, L234A L235A, N297A, name in Kabat numbering)
heavy: QVQLVESGGGVVQPGRSLRLSCAASGFTFSNAWMHWVRQAPGKGLEWVAQIKAKSNNYATYYAESVKGRFTISRDDSKNSLYLQMDSLKTEDTAVYYCRYVHYGAYYGVDAWGQGTTVTVSSASTKGPSVFPLAPSSKSTSGGTAALGCLVKDYFPEPVTVSWNSGALTSGVHTFPAVLQSSGLYSLSSVVTVPSSSLGTQTYICNVNHKPSNTKVDKKVEPKSCDKTHTCPPCPAPEAAGGPSVFLFPPKPKDTLMISRTPEVTCVVVDVSHEDPEVKFNWYVDGVEVHNAKTKPREEQYASTYRVVSVLTVLHQDWLNGKEYKCKVSNKALPAPIEKTISKAKGQPREPQVYTLPPSRCELTKNQVSLSCAVKGFYPSDIAVEWESNGQPENNYKTTPPVLDSDGSFFLVSKLTVDKSRWQQGNVFSCSVMHEALHNHYTQKSLSLSPDYKDDDDK
chain: EPKSSDKTHTCPPCPAPELLGGPSVFLFPPKPKDTLMISRTPEVTCVVVDVSHEDPEVKFNWYVDGVEVHNAKTKPREEQYNSTYRVVSVLTVLHQDWLNGKEYKCKVSNKALPAPIEKTISKAKGQPREPQVCTLPPSRDELTKNQVSLWCLVKGFYPSDIAVEWESNGQPENNYKTTPPVLDSDGSFFLYSKLTVDKSRWQQGNVFSCSVMHEALHNRYTQKSLSLSP
light: DIVMTQSPLSLPVTPGEPASISCRSSQSLVHSNRNTYLHWYQQKPGQAPRLLIYKVSNRFSGVPDRFSGSGSGTDFTLKISRVEAEDVGVYYCGQGTQVPYTFGQGTKLEIKRTVAAPSVFIFPPSDEQLKSGTASVVCLLNNFYPREAKVQWKVDNALQSGNSQESVTEQDSKDSTYSLSSTLTLSKADYEKHKVYACEVTHQGLSSPVTKSFNRGEC
notes: one-arm antibody
With B2, the “KD ratio” value stood at 0.56.

B3: CE115HA000 S62D one-arm antibody (antibody, human IgG1, kappa, L234A L235A, N297A, name in Kabat numbering)
heavy: QVQLVESGGGVVQPGRSLRLSCAASGFTFSNAWMHWVRQAPGKGLEWVAQIKAKSNNYATYYAEDVKGRFTISRDDSKNSLYLQMNSLKTEDTAVYYCRYVHYGAYYGVDAWGQGTTVTVSSASTKGPSVFPLAPSSKSTSGGTAALGCLVKDYFPEPVTVSWNSGALTSGVHTFPAVLQSSGLYSLSSVVTVPSSSLGTQTYICNVNHKPSNTKVDKKVEPKSCDKTHTCPPCPAPEAAGGPSVFLFPPKPKDTLMISRTPEVTCVVVDVSHEDPEVKFNWYVDGVEVHNAKTKPREEQYASTYRVVSVLTVLHQDWLNGKEYKCKVSNKALPAPIEKTISKAKGQPREPQVYTLPPSRCELTKNQVSLSCAVKGFYPSDIAVEWESNGQPENNYKTTPPVLDSDGSFFLVSKLTVDKSRWQQGNVFSCSVMHEALHNHYTQKSLSLSPDYKDDDDK
chain: EPKSSDKTHTCPPCPAPELLGGPSVFLFPPKPKDTLMISRTPEVTCVVVDVSHEDPEVKFNWYVDGVEVHNAKTKPREEQYNSTYRVVSVLTVLHQDWLNGKEYKCKVSNKALPAPIEKTISKAKGQPREPQVCTLPPSRDELTKNQVSLWCLVKGFYPSDIAVEWESNGQPENNYKTTPPVLDSDGSFFLYSKLTVDKSRWQQGNVFSCSVMHEALHNRYTQKSLSLSP
light: DIVMTQSPLSLPVTPGEPASISCRSSQSLVHSNRNTYLHWYQQKPGQAPRLLIYKVSNRFSGVPDRFSGSGSGTDFTLKISRVEAEDVGVYYCGQGTQVPYTFGQGTKLEIKRTVAAPSVFIFPPSDEQLKSGTASVVCLLNNFYPREAKVQWKVDNALQSGNSQESVTEQDSKDSTYSLSSTLTLSKADYEKHKVYACEVTHQGLSSPVTKSFNRGEC
notes: one-arm antibody
Take B3: the “KD ratio” value worked out at 0.87.

B4: CE115HA000 Q105E one-arm antibody (antibody, human IgG1, kappa, L234A L235A, N297A, name in Kabat numbering)
heavy: QVQLVESGGGVVQPGRSLRLSCAASGFTFSNAWMHWVRQAPGKGLEWVAQIKAKSNNYATYYAESVKGRFTISRDDSKNSLYLQMNSLKTEDTAVYYCRYVHYGAYYGVDAWGEGTTVTVSSASTKGPSVFPLAPSSKSTSGGTAALGCLVKDYFPEPVTVSWNSGALTSGVHTFPAVLQSSGLYSLSSVVTVPSSSLGTQTYICNVNHKPSNTKVDKKVEPKSCDKTHTCPPCPAPEAAGGPSVFLFPPKPKDTLMISRTPEVTCVVVDVSHEDPEVKFNWYVDGVEVHNAKTKPREEQYASTYRVVSVLTVLHQDWLNGKEYKCKVSNKALPAPIEKTISKAKGQPREPQVYTLPPSRCELTKNQVSLSCAVKGFYPSDIAVEWESNGQPENNYKTTPPVLDSDGSFFLVSKLTVDKSRWQQGNVFSCSVMHEALHNHYTQKSLSLSPDYKDDDDK
chain: EPKSSDKTHTCPPCPAPELLGGPSVFLFPPKPKDTLMISRTPEVTCVVVDVSHEDPEVKFNWYVDGVEVHNAKTKPREEQYNSTYRVVSVLTVLHQDWLNGKEYKCKVSNKALPAPIEKTISKAKGQPREPQVCTLPPSRDELTKNQVSLWCLVKGFYPSDIAVEWESNGQPENNYKTTPPVLDSDGSFFLYSKLTVDKSRWQQGNVFSCSVMHEALHNRYTQKSLSLSP
light: DIVMTQSPLSLPVTPGEPASISCRSSQSLVHSNRNTYLHWYQQKPGQAPRLLIYKVSNRFSGVPDRFSGSGSGTDFTLKISRVEAEDVGVYYCGQGTQVPYTFGQGTKLEIKRTVAAPSVFIFPPSDEQLKSGTASVVCLLNNFYPREAKVQWKVDNALQSGNSQESVTEQDSKDSTYSLSSTLTLSKADYEKHKVYACEVTHQGLSSPVTKSFNRGEC
notes: one-arm antibody
As to B4, the “KD ratio” value amounted to 0.89.

The values are drawn from US20240270846A1 (published 2024).
